Sequences and labels used below:
B8: Gαi/q chimera (other)
chain: MGCTLSAEDKAAVERSKMIDRNLREDGERSRRELKLLLLGTGESGKSTFIKQMRIIHGSGYSDEDKRGFTKLVYQNIFTAMQAMIRAMDTLKIPYKYEHNKAHAQLVREVDVEKVSAFENPYVDAIKSLWNDPGIQECYDRRREYQLSDSTKYYLNDLDRVADPSYLPTQQDVLRVRVPTTGIIEYPFDLQSVIFRMVDVGGQRSERRKWIHCFENVTSIMFLVALSEYDQVLVESDNENRMEESKALFRTIITYPWFQNSSVILFLNKKDLLEEKIMYSHLVDYFPEYDGPQRDAQAAREFILKMFVDLNPDSDKIIYSHFTCATDTENIRFVFAAVKDTILQLNLKEYNLV
modifications: biotinylated (bead-bound in FCPIA)

Experiment in all cases: flow cytometry protein interaction assay
(In flow cytometry, cells or beads pass a laser one at a time.)

Assay [1] addresses T1, RhoA (UniProt P61586 1-193, biotinylated where bead-bound; Alexa Fluor 532 label where AF-labeled).
The assay “Gαi/q chimera” deals with B8.
Assay [2] deals with p63RhoGEF DH/PH 4A alanine insertion mutant (human, UniProt Q86VW2-1 149-502, 4A: 4 alanines inserted after Thr338).
Assay [3] deals with p63RhoGEF DH/PH 7A alanine insertion mutant (human, UniProt Q86VW2-1 149-502, 7A: 7 alanines inserted after Thr338).
The target in assay [4] is p63RhoGEF DH/PH 3A alanine insertion mutant (human, UniProt Q86VW2-1 149-502, 3A: 3 alanines inserted after Thr338).
Assay [5] deals with p63RhoGEF DH/PH 1A alanine insertion mutant (human, UniProt Q86VW2-1 149-502, 1A: 1 alanine inserted after Thr338).
Assay [6] deals with p63RhoGEF DH/PH 2A alanine insertion mutant (human, UniProt Q86VW2-1 149-502, 2A: 2 alanines inserted after Thr338).
In assay [7] the target is p63RhoGEF DH/PH 6A alanine insertion mutant (human, UniProt Q86VW2-1 149-502, 6A: 6 alanines inserted after Thr338).
For assay [8], the target named is p63RhoGEF DH/PH 5A alanine insertion mutant (human, UniProt Q86VW2-1 149-502, 5A: 5 alanines inserted after Thr338).
In assay [9] the target is T1, RhoA. This is another data set of the same source.

T1 sequence (P61586 whole entry): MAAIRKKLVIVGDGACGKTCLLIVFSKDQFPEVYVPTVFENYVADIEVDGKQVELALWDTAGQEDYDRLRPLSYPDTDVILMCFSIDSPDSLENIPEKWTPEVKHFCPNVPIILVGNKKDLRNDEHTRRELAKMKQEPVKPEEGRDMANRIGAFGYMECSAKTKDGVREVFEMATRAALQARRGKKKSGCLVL

B1: p63RhoGEF DH/PH-G340I (domain or fragment)
chain: not shown
B1: the Ki (as a rule, the equilibrium dissociation constant of an inhibitor or competing ligand from its target) with RhoA [1] was 1200 nM; with Gαi/q chimera, 670 nM.

B2: p63RhoGEF DH/PH-P330L (domain or fragment)
chain: not shown
B2: the Ki in the assay with Gαi/q chimera was 40 nM.

B3: p63RhoGEF DH/PH-M336S (domain or fragment)
chain: not shown
Molecule B3 showed a Ki in the assay with Gαi/q chimera of 68 nM.

B4: p63RhoGEF DH/PH-R341E (domain or fragment)
chain: not shown
modifications: Alexa Fluor 532 label in direct binding to RhoA; unlabeled as competitor
In the case of B4, the Ki with RhoA [1] is 94 nM; with Gαi/q chimera, 120 nM.

B5: p63RhoGEF DH/PH-R341A (domain or fragment)
chain: not shown
modifications: Alexa Fluor 532 label in direct binding to RhoA; unlabeled as competitor
For B5, the inhibition constant Ki was 190 nM in the assay with RhoA [1] and 75 nM in the assay with Gαi/q chimera.

B6: p63RhoGEF DH domain (residues 149-338) (domain or fragment)
chain: not shown
Turning to B6, in the assay with RhoA [1], affinity was put at a Ki of 300 nM.

B7: p63RhoGEF DH/PH-Δ(397-402) (domain or fragment)
chain: not shown
Molecule B7 had a Ki with Gαi/q chimera of 48 nM.

Regarding B8, the binding result in assay [2], in assay [3], in assay [4], in [5], in [6] and in [7] was “binds” throughout. Further, the binding result in assay [8] is reported as “binds”.

B9: Gαi/q bound to p63RhoGEF DH/PH wild type (complex)
chain 1: MGCTLSAEDKAAVERSKMIDRNLREDGERSRRELKLLLLGTGESGKSTFIKQMRIIHGSGYSDEDKRGFTKLVYQNIFTAMQAMIRAMDTLKIPYKYEHNKAHAQLVREVDVEKVSAFENPYVDAIKSLWNDPGIQECYDRRREYQLSDSTKYYLNDLDRVADPSYLPTQQDVLRVRVPTTGIIEYPFDLQSVIFRMVDVGGQRSERRKWIHCFENVTSIMFLVALSEYDQVLVESDNENRMEESKALFRTIITYPWFQNSSVILFLNKKDLLEEKIMYSHLVDYFPEYDGPQRDAQAAREFILKMFVDLNPDSDKIIYSHFTCATDTENIRFVFAAVKDTILQLNLKEYNLV
chain 2: not shown
modifications: biotinylated (bead-bound)
Consider B9, for which the dissociation constant (Kd) (in general, the concentration at which binding is half-saturated) in the assay with RhoA [9] worked out at 17 nM.

Values taken from paper PMC2862694 (Cellular signalling, 2010).
